# Results from paper PMC11642994, “AGC family kinase of Entamoeba histolytica: Decoding the members biochemically” (PLOS Pathogens, 2024).
# Entries after “also recorded” stand apart in the source; their conditions may differ. No end group written: not given here.
# T1: EhAGCK1 WT (Entamoeba histolytica AGC family kinase 1, EHI_188930), full-length recombinant His-tagged protein (Entamoeba histolytica, UniProt C4M2W0 1-433)
# T1 construct: also called His-EhAGCK1; source: E. coli C41(DE3), purified (Ni2+-NTA)
# T1 sequence: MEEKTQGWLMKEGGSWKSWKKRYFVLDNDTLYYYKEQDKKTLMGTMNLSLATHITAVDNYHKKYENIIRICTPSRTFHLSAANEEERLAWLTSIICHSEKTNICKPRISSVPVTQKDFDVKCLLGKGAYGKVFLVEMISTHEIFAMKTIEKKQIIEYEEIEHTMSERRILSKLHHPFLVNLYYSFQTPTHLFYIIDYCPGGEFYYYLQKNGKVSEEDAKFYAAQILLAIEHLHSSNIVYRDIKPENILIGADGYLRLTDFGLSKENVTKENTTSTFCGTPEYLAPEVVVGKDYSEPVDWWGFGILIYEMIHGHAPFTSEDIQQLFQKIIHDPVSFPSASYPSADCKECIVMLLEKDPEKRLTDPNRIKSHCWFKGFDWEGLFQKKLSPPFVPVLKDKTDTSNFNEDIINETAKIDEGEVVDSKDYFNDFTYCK
# T2: EhAGCK2 WT (Entamoeba histolytica AGC family kinase 2, EHI_053040), full-length recombinant His-tagged protein (Entamoeba histolytica, UniProt C4M3C2 1-434)
# T2 construct: source: E. coli C41(DE3), purified (Ni2+-NTA)
# T2 sequence: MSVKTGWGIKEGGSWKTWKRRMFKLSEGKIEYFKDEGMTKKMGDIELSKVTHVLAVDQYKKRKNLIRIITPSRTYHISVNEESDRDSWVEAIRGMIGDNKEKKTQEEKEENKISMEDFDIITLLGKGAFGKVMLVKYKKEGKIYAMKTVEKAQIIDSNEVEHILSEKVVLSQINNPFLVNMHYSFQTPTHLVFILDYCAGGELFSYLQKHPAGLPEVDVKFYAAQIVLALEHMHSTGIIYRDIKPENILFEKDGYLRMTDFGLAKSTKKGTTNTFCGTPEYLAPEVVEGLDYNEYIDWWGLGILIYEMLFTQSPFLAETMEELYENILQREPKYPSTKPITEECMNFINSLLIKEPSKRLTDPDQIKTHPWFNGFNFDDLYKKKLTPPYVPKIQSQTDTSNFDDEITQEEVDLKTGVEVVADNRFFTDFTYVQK
# What was measured:
# [1] = molecular target: EhAGCK1 WT (Entamoeba histolytica, UniProt C4M2W0); assay: Microscale Thermophoresis (MST), EhAGCK1 WT; format: binding
# Experimental: Microscale Thermophoresis (MST) was performed in the presence of full-length and kinase-dead EhAGCK1 and EhAGCK2 proteins, along with HsGSK3, EhRhoGEF, and EhCoactosin peptide substrates. Proteins were labelled using a His-tag labelling kit, RED-tris-NTA 2nd Generation (Nano Temper Technologies, San Francisco, CA, USA). A brief labelling reaction was performed in a buffer containing (50 mM Tris-Cl pH 8, 150 mM NaCl, 1 mM β-ME and 5% glycerol) with a protein concentration of 20 nM and a molar dye: protein ratio of approximately 3:1. The mixture was kept at room temperature for 30 min, followed by centrifugation at 15000 g for 10 min at 4°C. A series of 16 1:1 dilutions were prepared using the same buffer, resulting in peptide concentrations ranging from 500 μM to […]. Following a 10 min incubation, the samples were loaded into standard monolith NT.115 capillaries from Nano Temper Technologies. […] Data from three independently pipetted measurements were analysed using MO. […]
# The kinase assay data presented here are the mean ± standard error (SE) of n≥3 of three independent experiments. The Km and Vmax were determined from a direct, nonlinear fit of [V] versus [S] plots using the Michaelis-Menten equation: V=Vmax[S]/Km+[S] using the GraphPad Prism 9.0 software package (GraphPad Software Inc., CA, USA). […]
# [2] = test system: HsGSK3 peptide; assay: ADP-Glo kinase activity of kinase variants with human GSK3 peptide in MgCl2 and MnCl2 buffers; format: biochemical; conditions: for kinase activity with HsGSK3 peptide in presence of Mn2+: Mn2+ present
# Experimental: The phosphorylation activity of kinases was measured using the ADP-Glo kinase assay kit according to the manufacturer’s protocol with few modifications (Promega, Madison, WI, Catalogue number V6930). Assays were performed in a Corning 384-well low-volume white round bottom polystyrene NBS microplate with a total volume of 32 μl in the ratio of 1:1:2, corresponding to the kinase reaction, ADP-Glo reagent, and detection reagent, respectively. The kinase reaction was performed in an 8 μl volume containing 4 μl of purified protein kinases, 2 μl of peptide substrate, and 2 μl of ATP (Promega, Madison, WI). The working concentration of all the kinase reaction components was prepared in the standard kinase assay buffer (40 mM Tris-Cl pH 7.5, 20 mM MgCl2, 2 mM DTT). Along with other controls, only buffer-negative controls without protein kinase, substrate, and ATP were included in the kinase assay. Kinase assay reactions in each well were started immediately by adding ATP. The reactions were allowed to continue for 1 h at 30°C in the incubator chamber without shaking. The kinase assay was quenched by adding 8 μl of ADP-Glo reagent in each well before adding ADP-Glo reagent. The reaction plate was incubated for 5 min at room temperature. Termination reactions were allowed to proceed for 40 min at room temperature. ADP-Glo reagent, in addition to quenching the reaction, scavenges the unconsumed ATP from the reaction. In the final step of the ADP-Glo kinase assay, 16 μl of kinase detection reagent was added to each well and incubated for 40 min to simultaneously convert ADP to ATP and allow the newly synthesised ATP to be measured using a luciferase/luciferin reaction. The luminescent signal generated was measured using a SpectraMax i3x Multi-Mode Microplate Reader (Molecular Devices), and it was proportional to the ADP concentration produced and correlated with the kinase activity.
# The kinase assay data presented here are the mean ± standard error (SE) of n≥3 of three independent experiments. The Km and Vmax were determined from a direct, nonlinear fit of [V] versus [S] plots using the Michaelis-Menten equation: V=Vmax[S]/Km+[S] using the GraphPad Prism 9.0 software package (GraphPad Software Inc., CA, USA). Additionally, the Microscale Thermophoresis (MST) experiments were conducted using the Monolith NT.11.5 instrument, with triplicate runs. Statistical comparisons were made using Student’s t-test. Differences in mean values were considered significant at *p-value≤0.05, **p-value≤0.01, ***p-value≤0.001, ****p-value≤0.0001.
# [3] = test system: autophosphorylation; assay: ATP biotinylation kinase assay (autophosphorylation, SA-HRPO western blot); format: biochemical, Entamoeba histolytica; conditions: 4 μM kinase (EhPDK1 2 μM), 20 μM biotin-labelled ATP, 40 mM Tris-Cl pH 7.8, 10 mM MgCl2, 2 mM DTT, 30°C, 1 h
# Experimental: ATP biotinylation assays were performed in the presence of 4 μM of EhAGCK1 (WT, T275D, and KDD1) and EhAGCK2 (WT, T274D, and KDD2) along with 2 μM of wild-type EhPDK1 in the presence of activation buffer 40 mM Tris-Cl pH 7.8, 10 mM MgCl2, and 2 mM DTT and incubated at 30°C for 1 h. The reaction was triggered by adding 20 μM biotin-labelled ATP (Catalogue NU-970-BIO, Jena Bioscience). 20 μl of the reaction was collected at the indicated time point and quenched by the addition of 4x SDS-loading dye. After gel electrophoresis, phosphorylated proteins were visualized by immunoblotting using HRPO-conjugated streptavidin (Invitrogen).
# ATP biotinylated protein samples were separated by SDS-PAGE and then electro-transferred to PVDF membrane (Pall life sciences). The membrane was blocked overnight by 5% BSA (G-Biosciences) in TBS-T (TBS with 0.1% Tween 20) and stained with Ponceau S. This blocking process was done overnight at 4°C. The membrane was then incubated with 1:1000 dilution of HRPO-conjugated streptavidin (Invitrogen) at room temperature. Following antibody incubation, the blots were carefully cleaned with TBS-T. Band detection was carried out with a Millipore ECL kit.
# [4] = molecular target: T1, EhAGCK1 WT (Entamoeba histolytica AGC …); assay: MST; His-tagged kinase labelled with RED-tris-NTA 2nd Generation dye, kept constant (50 nM by the legend); unlabelled peptide in 16 1:1 dilutions, 500 uM to 153 nM as printed; 50 mM Tris-Cl pH 8, 150 mM NaCl, 1 mM beta-ME, 5% glycerol; 25 C; Monolith NT.115, 50% LED, medium MST power; conditions: both partners purified
# [5] = molecular target: T2, EhAGCK2 WT (Entamoeba histolytica AGC …); assay: as above; conditions: both partners purified
# [6] = 50 μM HsGSK3 peptide, 250 μM ATP, 60 min, 30°C
molecule,measurement,setting,value
"GRPRTTSFAESCK [HsGSK3, reference compound]",Kd,[1],2.61 µM
"EhAGCK2 WT: recombinant full-length wild-type His-tagged AGC family kinase 2 of E. histolytica (protein, left off: His tag, end not stated, kept, recombinant full-length wild-type His-tagged AGC family kinase 2 of E. histolytica) MSVKTGWGIKEGGSWKTWKRRMFKLSEGKIEYFKDEGMTKKMGDIELSKVTHVLAVDQYKKRKNLIRIITPSRTYHISVNEESDRDSWVEAIRGMIGDNKEKKTQEEKEENKISMEDFDIITLLGKGAFGKVMLVKYKKEGKIYAMKTVEKAQIIDSNEVEHILSEKVVLSQINNPFLVNMHYSFQTPTHLVFILDYCAGGELFSYLQKHPAGLPEVDVKFYAAQIVLALEHMHSTGIIYRDIKPENILFEKDGYLRMTDFGLAKSTKKGTTNTFCGTPEYLAPEVVEGLDYNEYIDWWGLGILIYEMLFTQSPFLAETMEELYENILQREPKYPSTKPITEECMNFINSLLIKEPSKRLTDPDQIKTHPWFNGFNFDDLYKKKLTPPYVPKIQSQTDTSNFDDEITQEEVDLKTGVEVVADNRFFTDFTYVQK",kinase activity with HsGSK3 peptide in Mg2+ / without Mn2+ (words),"[2]; Mg2+, 50 μM HsGSK3 peptide, kinase 0-80 μM, 250 μM ATP",phosphorylates HsGSK3 peptide
same,ion preference for kinase activity,"[2]; MgCl2 versus MnCl2 buffer, HsGSK3 peptide",phosphorylates the peptide substrates in both MgCl2 and MnCl2 buffers; also recorded: optimal activity with Mg^2+
same,kinase activity with HsGSK3 peptide in presence of Mn2+,[2]; [6],"showed no increment, in fact, a small decrease in the average kinase activity"
same,Fold change (MgCl2: MnCl2),"[2]; S1 Table, kinase activity in MgCl2 and MnCl2 buffers, 50 μM HsGSK3 peptide, 250 μM ATP, 60 min, 30°C",0.63
same,autophosphorylation activity (words),[3],exhibited autophosphorylation activity
same,autophosphorylation activity (words),[3]; listed as EhAGCK2,able to accept biotin-ATP as substrate and underwent autophosphorylation
"KDD1: kinase-dead domain EhAGCK1 (K147A and D241A) (protein, left off: His tag, end not stated, kept) MEEKTQGWLMKEGGSWKSWKKRYFVLDNDTLYYYKEQDKKTLMGTMNLSLATHITAVDNYHKKYENIIRICTPSRTFHLSAANEEERLAWLTSIICHSEKTNICKPRISSVPVTQKDFDVKCLLGKGAYGKVFLVEMISTHEIFAMATIEKKQIIEYEEIEHTMSERRILSKLHHPFLVNLYYSFQTPTHLFYIIDYCPGGEFYYYLQKNGKVSEEDAKFYAAQILLAIEHLHSSNIVYRAIKPENILIGADGYLRLTDFGLSKENVTKENTTSTFCGTPEYLAPEVVVGKDYSEPVDWWGFGILIYEMIHGHAPFTSEDIQQLFQKIIHDPVSFPSASYPSADCKECIVMLLEKDPEKRLTDPNRIKSHCWFKGFDWEGLFQKKLSPPFVPVLKDKTDTSNFNEDIINETAKIDEGEVVDSKDYFNDFTYCK",kinase activity with HsGSK3 peptide in presence of Mn2+,[2]; [6],remained inactive
same,autophosphorylation activity (words),[3],remain inactive
"SSPSSVPAAQSTTPVNVPK [EhRhoGEF peptide (from RhoGEF, EHI_008090)]",Kd,[4],0.307 µM
"KAGGADYSFNTTSN [EhCoactosin peptide (from Coactosin, EHI_168340)]",Kd,[5],0.413 µM
